The target in test [1] is T1, murine IL-21R expressed on cells (murine, UniProt Q9JHX3 20-529). Nature of the test: cell-based or functional assay.
Test [2] concerns the target T2, human IL-21R expressed on cells (human, UniProt Q9HBE5 20-538). In words: cell-based or functional assay.
Test [3] deals with T3, human IL-21R extracellular domain His-Flag fusion protein (human, UniProt Q9HBE5 20-232).
T3 construct: Biotinylated in the HTRF screen; also called hIL-21R-H/F; human IL-21R-H/F
In words: SPR, Ab captured on anti-human IgG, replicate experiment. The procedure:
(§1) The kinetics of binding of anti-IL-21R antibodies to human and murine IL-21R-H/F was tested on a BIACORE™ surface plasmon resonance instrument. Anti-human IgG antibodies (Invitrogen Corporation) were immobilized onto a research-grade carboxy-methyl-dextran chip (CM5) using standard amine coupling. The surface was activated with EDC/NHS for 7 min at a flow of 20 μl/min. The first flow cell was used as a reference surface to correct for bulk refractive index, matrix effects, and nonspecific binding. The anti-human-Fc antibody was diluted to 20 μg/ml in 10 mM sodium acetate buffer (pH 5.0), and 2950-3405 resonance units (RU) were captured on each of the four flow cells. Remaining activated groups were blocked with 1.0 M ethanolamine-HCl (pH 8.5).
(§2) Anti-IL-21R antibodies were diluted to 0.1-0.2 μg/ml in HBS/EP buffer supplemented with 0.2% bovine serum albumin and loaded onto the BIACORE™ chip. Following a brief washing period, solutions of 0-100 nM human IL-21R-H/F or 10-500 nM murine IL-21R-H/F were injected over the chip at a flow rate of 50 μl/min. The association phase was run for 3 min for human and murine IL-21R kinetics, and the dissociation phase was monitored for 15 min for hIL-21R and for 5 min for mIL-21R, followed by two 10 μl injections and one 30 μl injection of glycine (pH 1.5), to regenerate a fully active capturing surface. All binding experiments were done at 25° C. in HBS/EP buffer, and the sample rack was kept at 15° C. Blank and buffer effects were subtracted for each sensorgram using double referencing.
In general terms: In SPR one partner is held on a chip, and binding of the other changes the refractive index at the surface.

The target of test [4] is T3, human IL-21R extracellular domain …. In words: SPR, Ab captured on anti-human IgG. The procedure:
as §1, §2

For test [5], the target named is T4, murine IL-21R extracellular domain His-Flag fusion protein (murine, UniProt Q9JHX3 20-237).
T4 construct: Biotinylated in the ELISAs; also called mIL-21R-H/F; murine IL-21R-H/F
Nature of the test: SPR, Ab captured on anti-human IgG. On the procedure: as §1, §2

Test [6] addresses T5, human gamma (γ) common chain expressed on CHO cells (human, UniProt P31785 23-369).
T5 construct: whole, on cells; Control protein; also called human IL-2R-γ common subunit; human γ-common
T5 sequence (looked up): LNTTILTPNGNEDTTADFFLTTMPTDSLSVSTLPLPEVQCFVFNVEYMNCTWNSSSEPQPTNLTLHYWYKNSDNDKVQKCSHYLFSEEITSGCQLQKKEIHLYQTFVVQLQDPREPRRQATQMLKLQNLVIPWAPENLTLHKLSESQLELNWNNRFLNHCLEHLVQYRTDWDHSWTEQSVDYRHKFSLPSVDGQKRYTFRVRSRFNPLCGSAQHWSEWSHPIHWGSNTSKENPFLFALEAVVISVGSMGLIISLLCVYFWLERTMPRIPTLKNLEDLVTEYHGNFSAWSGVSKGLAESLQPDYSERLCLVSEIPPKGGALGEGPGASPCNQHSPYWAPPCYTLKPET
Nature of the test: cell-based ELISA on CHO cells transiently expressing human gamma common chain; HRP anti-human IgG, A450. On the procedure: FIG. 6(a-l) depicts the binding of 21 anti-IL-21R IgGs to CHO cells transiently expressing human IL-21R (FIGS. 6a-c), rat IL-21R (FIGS. 6d-f), cynomolgus monkey IL-21R (FIGS. 6g-i), and human gamma common chain (FIGS. 6j-1). CHO cells were transiently transfected with IL-21R or the control gamma common chain, and binding was detected with HRP-conjugated anti-human IgG in a cell-based ELISA.
A subset of binding proteins was tested for binding to rat, cynomolgus monkey, human IL-21R, or human IL-2R-γ common subunit expressed transiently on the surfaces of CHO-PA-Dukx cells. Cells were transfected 48 hr prior to the assay. On the day of the assay, cells were washed gently 5× in PBS containing 0.9 mM CaCl₂ and 0.45 mM MgCl₂ (PBS/CaMg) on an automated plate washer (Titertek, Huntsville, Ala.), and blocked for 1 hr at RT in PBS/CaMg/5% nonfat dry milk. Conditioned media from transiently expressed anti-IL-21R IgGs were serially diluted in blocking buffer and added to the cells in the blocked plates for 1 hr at RT. Cells were washed 5× with PBS/CaMg and then incubated with horseradish peroxidase-conjugated anti-human IgG for 1 hr at RT. Cells were then washed 10× in PBS/CaMg and all of the wash buffer was removed. Cells were incubated with 100 μl TMB until the color reaction reached saturation, stopped with 100 μl of 0.18 M H₂SO₄, and read at A450 on a Perkin Elmer ENVISION™ plate reader.
(ELISA stands for enzyme-linked immunosorbent assay.)

Test [7] has as its target T6, cynomolgus monkey IL-21R expressed on cells (cynomolgus monkey, UniProt G7Q0S8 41-559).
T6 construct: whole, on cells
In words: cell-based ELISA on CHO cells transiently expressing cynomolgus monkey IL-21R; HRP anti-human IgG, A450.

The target in test [8] is T2, human IL-21R expressed on cells. Nature of the test: cell-based or functional assay. The source holds these as a separate data set.
The target of test [9] is T7, rat IL-21R expressed on cells (rat).
T7 construct: whole, on cells
Nature of the test: cell ELISA, CHO cells.

Test [10] has as its target T6, cynomolgus monkey IL-21R expressed on …. In words: cell ELISA, CHO cells.
The target of test [11] is T2, human IL-21R expressed on cells. Nature of the test: cell ELISA, CHO cells.
Test [12] concerns the target T5, human gamma (γ) common chain expressed …. Nature of the test: cell ELISA, CHO cells.
Test [13] concerns the target T1, murine IL-21R expressed on cells. Nature of the test: cell-based or functional assay. The source holds these as a separate data set.
Test [14] deals with T2, human IL-21R expressed on cells. Nature of the test: cell-based or functional assay. This is another data set of the same source.

T2 sequence (Q9HBE5 20-538 limits assumed): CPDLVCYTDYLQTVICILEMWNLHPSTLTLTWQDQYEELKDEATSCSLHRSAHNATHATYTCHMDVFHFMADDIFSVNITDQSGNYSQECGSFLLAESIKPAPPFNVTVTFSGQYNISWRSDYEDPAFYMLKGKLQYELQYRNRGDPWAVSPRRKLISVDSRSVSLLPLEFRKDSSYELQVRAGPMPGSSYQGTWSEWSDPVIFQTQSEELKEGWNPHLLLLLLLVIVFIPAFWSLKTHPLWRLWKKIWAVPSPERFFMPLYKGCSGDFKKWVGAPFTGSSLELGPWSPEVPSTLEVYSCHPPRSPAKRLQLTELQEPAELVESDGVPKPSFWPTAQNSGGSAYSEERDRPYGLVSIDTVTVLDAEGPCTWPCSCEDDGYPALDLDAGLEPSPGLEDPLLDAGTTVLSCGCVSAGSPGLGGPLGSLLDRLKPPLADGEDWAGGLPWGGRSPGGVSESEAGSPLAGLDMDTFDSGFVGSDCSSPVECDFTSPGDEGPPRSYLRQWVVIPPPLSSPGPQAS
T3 sequence (Q9HBE5 20-232): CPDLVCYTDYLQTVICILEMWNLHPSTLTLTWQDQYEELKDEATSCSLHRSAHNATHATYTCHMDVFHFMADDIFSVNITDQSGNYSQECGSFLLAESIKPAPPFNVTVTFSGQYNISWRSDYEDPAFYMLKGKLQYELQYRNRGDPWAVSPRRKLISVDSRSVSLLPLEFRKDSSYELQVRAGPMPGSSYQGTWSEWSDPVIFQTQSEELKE

B1: AbP (antibody, human IgG1, V domains shown)
VH: QVQLQESGPGLVKPSETLSLTCAVSGYSISSGYYWGWIRQPPGKGLEWIGSISHTGNTYYNPPLKSRVTISVDTSKNQFSLKLSSVTAADTAVYYCARGGGISRPEYWGQGTLVTVSS
VL: SSELTQDPAVSVALGQTVRITCQGDSLRTYYASWYQQKPGQAPVLVIYGKHKRPSGIPDRFSGSSSGNTASLTITGAQAEDEADYYCVSRSAKGNPHVLFGGGTQLTVL
notes: CDR3 graft, residue limits derived as for m29; also called VHP/VL20; VHPTM/VL20
Regarding B1, in [1], the “Murine IL-21R-BaF3 Proliferation IC50” value turned out to be 30 pM. In addition, the “Human IL-21R-BaF3 Proliferation IC50” value in [2] was determined as 750 pM. The “Human IL-21R-TF1 Proliferation IC50” value in [2] worked out at 3480 pM. Besides, the Kd in test [3] was 436 pM; in test [4], 615 pM; in test [5] it was 50800 pM. The figures for the koff in test [3], in test [4] and in test [5] were 0.000102 s⁻¹, 0.000119 s⁻¹ and 0.00508 s⁻¹, respectively. The kon in test [3] worked out at 233000 M⁻¹ s⁻¹; in test [4], 194000 M⁻¹ s⁻¹; in [5], 99900 M⁻¹ s⁻¹. In test [6], the binding result is reported as “no binding (tested: 40 nM)”. For the same molecule, the “EC50 (read off the curve)” value in [7] was approximately 700 pM. Further, in test [8], the “Neutralization of human primary T cell Proliferation IC50” value was 20 pM. Further, the “A450 (13 nM Ab)” value is 1.03 A450 in test [9], 1.31 A450 in test [10], 1.31 A450 in test [11] and 0.112 A450 in [12].

B2: AbO (antibody, human IgG1, V domains shown)
VH: QVQLQESGPGLVKPSETLSLTCAVSGYSISSGYYWGWIRQPPGKGLEWIGSISHTGNTYYNPPLKSRVTISVDTSKNQFSLKLSSVTAADTAVYYCARGGGISRPEYWGQGTLVTVSS
VL: SSELTQDPAVSVALGQTVRITCQGDSLRTYYASWYQQKPGQAPVLVIYGKHKRPSGIPDRFSGSSSGNTASLTITGAQAEDEADYYCVTRSAKGNPHVLFGGGTQLTVL
notes: CDR3 graft, residue limits derived as for m29; also called VHP/VL16; VHPTM/VL16
On to B2, for which the “Murine IL-21R-BaF3 Proliferation IC50” value in [1] is 65 pM. In test [2], the “Human IL-21R-BaF3 Proliferation IC50” value was determined as 520 pM. For the same molecule, the “Human IL-21R-TF1 Proliferation IC50” value in test [2] is 2910 pM. The values for the Kd in [4] and in test [5] were 475 pM and 49200 pM, respectively. In addition, the koff in test [4] is 0.000114 s⁻¹; in test [5], 0.00549 s⁻¹. For the same molecule, the kon in [4] is 241000 M⁻¹ s⁻¹; in test [5], 112000 M⁻¹ s⁻¹. Further, the binding result in test [6] is on record as “no binding (tested: 40 nM)”. In test [13], the “Neutralization of murine primary T cell Proliferation IC50” value is 4920 pM. The “EC50 (read off the curve)” value in test [7] is approximately 500 pM. Further, the “Neutralization of human primary T cell Proliferation IC50” value in test [8] amounted to 60 pM. Further, the “A450 (13 nM Ab)” value is 1.1 A450 in [9], 1.36 A450 in [10], 1.11 A450 in test [11] and 0.108 A450 in [12].

B3: parental 18A5 antibody (antibody, V domains shown)
VH: QVQLQESGPGLVKTSETLSLTCAVSGYSISSGYYWGWIRQPPGKGLEWIGSISHTGNTYYNPPLKSRVTISVDTSKNQFSLKLSSVTAADTAVYYCARGGGISRPEYWGKGTLVTVSS
VL: SSELTQDPPVSVALGQTVTLTCQGDSLRTYYASWYQQKSGQAPILLLYGKHKRPSGIPDRFSGSTSGDTASLTITGAQAEDEADYYCNSRDSSGNPHVLFGGGTQLTVL
notes: also called 18A5 IgG
B3: the “Neutralization of B cell proliferation IC50” value in [14] came out at 1860 pM. In test [3], this molecule yielded a Kd of 4400 pM, a koff of 0.00134 s⁻¹ and a kon of 304000 M⁻¹ s⁻¹. In [4], this molecule had a Kd of 4430 pM, a koff of 0.00108 s⁻¹ and a kon of 243000 M⁻¹ s⁻¹. Also, in [5], the Kd is 72000 pM, the koff stood at 0.0153 s⁻¹ and the kon turned out to be 212000 M⁻¹ s⁻¹. Besides, the binding result in test [6] is recorded as “no binding (tested: 13 nM)”. The “Neutralization of murine primary T cell Proliferation IC50” value in test [13] was more than 85000 pM. For the same molecule, the “EC50 (read off the curve)” value in test [7] was approximately 400 pM. The “Neutralization of human primary T cell Proliferation IC50” value in test [8] came to 1420 pM.

B4: AbQ (antibody, human IgG1, V domains shown)
VH: QVQLQESGPGLVKPSETLSLTCAVSGYSISSGYYWGWIRQPPGKGLEWIGSISHTGNTYYNPPLKSRVTISVDTSKNQFSLKLSSVTAADTAVYYCARFMGFGRPEYWGQGTLVTVSS
VL: SSELTQDPAVSVALGQTVRITCQGDSLRTYYASWYQQKPGQAPVLVIYGKHKRPSGIPDRFSGSSSGNTASLTITGAQAEDEADYYCVARSVVGNPHVLFGGGTQLTVL
notes: CDR3 graft, residue limits derived as for m29; also called VH3/VL2; VH3DM/VL2
For the molecule B4, in test [14], the “Neutralization of B cell proliferation IC50” value was found to be 160 pM. Further, the “Murine IL-21R-BaF3 Proliferation IC50” value in test [1] stood at 153 pM. Also, the “Human IL-21R-BaF3 Proliferation IC50” value in test [2] was 680 pM. Also, the “Human IL-21R-TF1 Proliferation IC50” value in [2] is 4620 pM. The Kd turned out to be 213 pM in test [3], 213 pM in test [4] and 68800 pM in [5]. Also, the koff in test [3] worked out at 9.34e-05 s⁻¹; in test [4] it was 9.34e-05 s⁻¹; in test [5], 0.0207 s⁻¹. The kon in test [4] is 439000 M⁻¹ s⁻¹; in test [5] it was 301000 M⁻¹ s⁻¹. For the same molecule, in test [6], the binding result is “no binding (tested: 40 nM)”. The “Neutralization of murine primary T cell Proliferation IC50” value in [13] was determined as 850 pM. Also, the “EC50 (read off the curve)” value in [7] is approximately 700 pM. In addition, the “Neutralization of human primary T cell Proliferation IC50” value in test [8] came to 80 pM. Further, the “A450 (13 nM Ab)” value in test [9] stood at 1.16 A450; in [10], 1.31 A450; in test [11], 1.25 A450; in test [12] it was 0.125 A450.

For orientation: Kd means the constant that tells how readily two partners part at equilibrium. As usually defined, the koff is the first-order rate constant of dissociation. As a reminder, the kon is a measure of how fast the partners come together. For orientation: EC50 (read off the curve) means the concentration at which the effect is half-maximal.

The values above are taken from patent US20120276102A1 (Pfizer, published 2012).
